The values below come from publication PMC10201420, “Structural basis for guide RNA selection by the RESC1–RESC2 complex”.

In one data set the target is RESC1;RESC2 K311S/R402D (Trypanosoma brucei;Trypanosoma brucei, UniProt Q57XL7;Q586X1 22-473;33-492, |K311S;R402D). Briefly: analytical SEC; SEC: 20 mM HEPES pH 7.5, 2 mM MgCl2, 1 mM DTT, variable NaCl; purification at 4 C; exact binding assay salt and temperature not in material. The following applies: protein: recombinant;recombinant; tags: N-terminal 6xHis-3C (cleaved when needed);none; copies: 1;1.

The next data set addresses T1, RESC1;RESC2 (Trypanosoma brucei;Trypanosoma brucei, UniProt Q57XL7;Q586X1 22-473;33-492, |).
T1 sequence 1: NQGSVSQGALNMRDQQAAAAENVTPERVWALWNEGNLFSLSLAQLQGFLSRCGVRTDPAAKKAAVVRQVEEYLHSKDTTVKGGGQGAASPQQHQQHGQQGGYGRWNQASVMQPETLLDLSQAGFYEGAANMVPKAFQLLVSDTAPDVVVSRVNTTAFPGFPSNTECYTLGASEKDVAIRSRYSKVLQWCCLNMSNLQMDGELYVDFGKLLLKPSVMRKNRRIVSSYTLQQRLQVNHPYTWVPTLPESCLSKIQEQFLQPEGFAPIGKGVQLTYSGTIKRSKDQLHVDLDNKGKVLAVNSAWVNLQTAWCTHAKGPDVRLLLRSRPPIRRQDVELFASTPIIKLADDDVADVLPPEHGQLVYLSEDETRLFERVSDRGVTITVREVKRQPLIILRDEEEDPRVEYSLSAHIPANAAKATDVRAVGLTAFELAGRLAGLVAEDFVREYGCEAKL
T1 sequence 2: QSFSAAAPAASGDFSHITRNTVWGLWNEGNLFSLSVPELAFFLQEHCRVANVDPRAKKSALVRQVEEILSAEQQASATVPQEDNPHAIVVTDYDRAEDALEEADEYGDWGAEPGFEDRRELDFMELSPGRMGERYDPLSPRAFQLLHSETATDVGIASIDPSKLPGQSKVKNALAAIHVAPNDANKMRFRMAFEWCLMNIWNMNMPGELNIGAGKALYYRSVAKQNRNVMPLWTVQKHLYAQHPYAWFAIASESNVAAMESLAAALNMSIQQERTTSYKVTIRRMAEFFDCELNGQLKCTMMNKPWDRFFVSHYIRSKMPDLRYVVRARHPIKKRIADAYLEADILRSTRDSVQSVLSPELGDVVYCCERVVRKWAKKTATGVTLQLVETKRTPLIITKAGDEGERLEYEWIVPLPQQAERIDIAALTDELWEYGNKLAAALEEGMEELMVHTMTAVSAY
The data set is described as above. Particulars: protein: recombinant;recombinant; tags: N-terminal 6xHis-3C (cleaved when needed);none; copies: 1;1.

B1: gRNA gND7(506), 5'-triphosphate (ssRNA)
RNA: GGGAUAUAAAUACGAUGUAAAUAACCUGUAGUAUAGUUAGUGUAUAUAGUGAAA
modifications: 5'-triphosphate
Turning to B1, the binding result is given as “no binding” with RESC1;RESC2 K311S/R402D and “binds” in the data set with RESC1;RESC2.

B2: gRNA gND7(506), 5'-hydroxyl (ssRNA)
RNA: GGGAUAUAAAUACGAUGUAAAUAACCUGUAGUAUAGUUAGUGUAUAUAGUGAAA
modifications: 5'-OH, no triphosphate
Consider B2, for which the binding result with RESC1;RESC2 is listed as “no binding”.
